# Experimental data taken from patent US20210269545A1.
# Experiments:
# CD38 on cells (human) [1] = molecular target: CD38 on cells (human) (UniProt P28907); assay: flow cytometry, Raji cells expressing CD19 and CD38
# CD38 on cells (human) [2] = molecular target: CD38 on cells (human) (UniProt P28907); assay: flow cytometry, Raji cells; adjusted fit with the top asymptote fixed at about the maximum response of Darzalex
# CD38 on cells (human) [3] = molecular target: CD38 on cells (human) (UniProt P28907); assay: flow cytometry, Raji cells expressing CD19 and CD38; remark: listed apart in the source
# CD19 on cells (human) = CD19 on cells (human) (UniProt P15391); assay: flow cytometry, Raji cells expressing CD19 and CD38 (negative control)
# CD38 on cells (human) [4] = molecular target: CD38 on cells (human) (UniProt P28907); assay: as above
# CD19 on cells (human), sequence (P15391 20-556): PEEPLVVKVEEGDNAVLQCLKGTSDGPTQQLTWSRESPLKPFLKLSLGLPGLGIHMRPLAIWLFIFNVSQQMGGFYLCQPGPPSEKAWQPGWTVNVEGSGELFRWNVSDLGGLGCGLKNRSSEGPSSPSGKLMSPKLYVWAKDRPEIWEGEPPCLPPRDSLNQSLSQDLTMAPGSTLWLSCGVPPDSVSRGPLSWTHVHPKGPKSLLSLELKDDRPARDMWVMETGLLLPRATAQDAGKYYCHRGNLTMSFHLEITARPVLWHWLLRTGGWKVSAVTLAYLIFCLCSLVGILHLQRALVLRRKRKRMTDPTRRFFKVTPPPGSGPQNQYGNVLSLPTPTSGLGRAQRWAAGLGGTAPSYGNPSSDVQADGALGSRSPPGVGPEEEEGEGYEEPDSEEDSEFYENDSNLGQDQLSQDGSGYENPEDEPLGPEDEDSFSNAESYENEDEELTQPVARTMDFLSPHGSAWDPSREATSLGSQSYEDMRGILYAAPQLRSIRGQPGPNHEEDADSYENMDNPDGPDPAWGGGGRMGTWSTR
Substance,EC50 (CD38 on cells (human) [1]),EC50 (CD38 on cells (human) [2]),EC50 (CD38 on cells (human) [3]),Max MFI (CD38 on cells (human) [3]),EC50 (CD19 on cells (human)),Max MFI (CD19 on cells (human)),EC50 (CD38 on cells (human) [4]),Max MFI (CD38 on cells (human) [4])
Darzalex (antibody),1.27 nM,1.27 nM,0.195 µg/mL,4.02e+06 MFI,–,–,–,–
IgG1 isotype control (antibody),–,–,–,–,4620 µg/mL,38700 MFI,4620 µg/mL,38700 MFI
